Patent publication US20250333501A1 (University of California, published 2025)

T1: CLDN6 endogenously expressed by human cancer cell lines (ARK2, OVCA429) (human, UniProt P56747 1-220)
T1 construct: Untagged endogenous protein; also called Endogenous CLDN6+
T1 sequence: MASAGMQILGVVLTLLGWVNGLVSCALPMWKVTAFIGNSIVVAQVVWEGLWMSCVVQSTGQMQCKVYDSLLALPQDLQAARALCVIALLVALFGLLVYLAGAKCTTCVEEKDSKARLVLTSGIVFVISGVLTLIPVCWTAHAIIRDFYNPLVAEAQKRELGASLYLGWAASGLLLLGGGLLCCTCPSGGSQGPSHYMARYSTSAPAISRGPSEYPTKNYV

T2: human CLDN6 fused to GFP, expressed on engineered HEK293T cells (HEK293T-CLDN6-mGFP) (human, UniProt P56747 1-220)
T2 construct: It calls residues 1-21 a signal peptide; also called Claudin-6; HEK293T-CLDN6-mGFP Artificial CLDN6+; not shown: mGFP tag
T2 sequence: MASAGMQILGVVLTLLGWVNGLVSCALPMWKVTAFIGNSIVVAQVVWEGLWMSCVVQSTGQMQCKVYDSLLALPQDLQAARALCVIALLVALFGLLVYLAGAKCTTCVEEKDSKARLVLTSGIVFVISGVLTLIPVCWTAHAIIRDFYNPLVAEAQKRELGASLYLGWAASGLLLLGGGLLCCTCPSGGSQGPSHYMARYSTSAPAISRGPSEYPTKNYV


Key:
[1] = target: T1, CLDN6 endogenously expressed by human …; test: FACS, AF647-labelled mAb, ARK2 cells
Method: (§1) Antibodies were purified and cell surface binding of the antibodies to CLDN6 and the antibody IC₅₀ were determined by FACS in which CLDN6 antibodies were directly conjugated with Alexa Fluor® 647 NHS Ester (Succinimidyl Ester), Cat #A20106 (ThermoFisher Scientific) following the manufacturer's protocol. CLDN6 antibodies were tested from 0.32 nM to 1000 nM (serial dilution 1:5, 6 points) in a 50 μl volume with 150,000 cells system.
(§2) CLDN6-expressing cells were used in FACS assays to determine the CLDN6 antibody's ability to bind to CLDN6 on the surface of cells and to cross-react with other CLDN family members. HEK293 T cells engineered to express human CLDN6 fused to GFP, mouse CLDN6 fused to GFP, CLDN9-GFP, CLDN4-GFP, or CLDN3-GFP, or GFP alone (without CLDN6) were used as artificial models of CLDN6 expression. ARK2, OVCA429, LS513 and MCF7 cells were used as endogenous models of CLDN6 expression, as well as models for CLDN3/4 expression.
(§3) For each type of cell tested and for each mAb, cells were detached from the surface of the culture flasks by EDTA (instead of trypsin) in order to protect the cell surface proteins. The detached cells were then incubated with Alexa Fluor®-labeled CLDN6 mAbs for 30 min in the dark on ice at a pre-determined concentration. The CLDN6 mAbs were directly labeled with Alexa Fluor® 647 NHS Ester (Succinimidyl Ester). After washing, the cells were read by a BD Accuri™ Flow Cytometer C6 to detect antibody-antigen protein binding in channel FL4H. Each antibody was tested at varied concentrations to establish a dose-fluorescence curve. The EC50/IC50 of the antibodies (the concentration of the antibody at which half the max value were calculated based on the values of FL4H (gated in viable singlet cells) using the Very Simple IC50 Tool kit available online which allows biological dose-response data to be plotted and fitted to curve types to give the EC50/IC50. The max value was the lowest concentration of the antibody at which fluorescence maxes out. The antibodies were also screened for their ability to cross-react with other CLDN proteins such as CLDN9, CLDN3, and CLDN4. These values were used to determine each antibody's relative affinity among the set of antibodies tested. Cross-reactivity data were obtained using a similar methodology, but with cells having a different expression profile for CLDN6, CLDN3, CLDN4 and CLDN9.

[2] = target: T1, CLDN6 endogenously expressed by human …; test: FACS, AF647-labelled mAb, OVCA429 cells
Method: as §1, §2, §3

[3] = target: T2, human CLDN6 fused to GFP, expressed on …; test: FACS, AF647-labelled mAb, HEK293T-CLDN6-mGFP cells
Method: as §1, §2, §3

[4] = target: T1, CLDN6 endogenously expressed by human …; test: FACS, 0.3 µg Ab, ARK2 cells
Method: (§4) FACS assays were also carried out to determine relative antigen binding strengths of the humanized antibodies (at either 1.5 μg or 0.3 μg) for binding to CLDN6 as expressed by the indicated cancer cell lines. 2nd Ab only was used as a negative control.

[5] = target: T1, CLDN6 endogenously expressed by human …; test: FACS, 1.5 µg Ab, ARK2 cells
Method: as §4

[6] = target: T1, CLDN6 endogenously expressed by human …; test: FACS, 1.5 µg Ab, OVCA429 cells
[7] = target: T2, human CLDN6 fused to GFP, expressed on …; test: FACS, 0.3 µg Ab, 293T clone with human CLDN6
How it was run: (§5)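 Relative antigen binding strength of humanized antibodies was taken from flow cytometry fluorescence, using 293T clones engineered to express human CLDN6. Each antibody, labelled with Alexa Fluor 647 NHS ester and used at 0.3 µg or 1.5 µg, was incubated with EDTA-detached cells for 30 min on ice in the dark before washing and reading on a BD Accuri C6 (channel FL4H).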

[8] = target: T2, human CLDN6 fused to GFP, expressed on …; test: FACS, 1.5 µg Ab, 293T clone with human CLDN6
How it was run: as §5

Row | Binder | EC50 [1] | EC50 [2] | EC50 [3] | FACS fluorescence [4] | FACS fluorescence [5] | FACS fluorescence [6] | FACS fluorescence [7] | FACS fluorescence [8]
1 | AB3 (antibody, V domains shown, Labelled with Alexa Fluor 647 for FACS and with Texas Red-X in the internalization assay) VH: EVKLEESGGGLVQPGGSMKLSCVASGFTFSNYWMNWVRQSPEKGLEWVAQIRLKSDNYATHYAESVKGRFTISRDDSKRSVYLQMNNLRAEDTGTYYCNDGPPSGCWGQGTTLIVSS VL: DIQMTQSPASLSASVGETVTITCRISENIYSYLAWYQQKQGKSPQLLVYNAKILVEGVPSRFSGSGSGTQFSLKINSLQPEDFGNYYCQHHYTVPWTFGGGTKLEIK | 1650 nM | 1100 nM | 604 nM |  |  |  |  | 
2 | AB11-chim (antibody, V domains shown, 'chim' is the pre-humanized form (parental variable regions); also called pre-humanized (chimeric) form of AB11) VH: DVQLVESGGGLVQPRGSRKLSCAASGFTFSSFGMHWVRQAPEKGLEWVAYISSDSRTIYYADTVKGRFTISRDNPTNTLFLQMTSLRSEDTAMYYCARDYGRTYEAYWGQGTLVTVSA VL: DIVLTQSPASLAVSLGQRATISCRASKSVSTSGYSYIHWYQQKPGQPPKLLIYLASNLESGVPARFSGSGSGTDFTLNIHPVEEEDAATYYCQHSRELPLTFGAGTKLELK |  |  |  | 1320 | 1260 | 2440 | 1670 | 3490
3 | AB11-2 (antibody, V domains shown, also called Humanized AB 11-2) VH: EVQLVESGGGLVQPGGSLRLSCAASGFTFSSFGMHWVRQAPGKGLEWVAYISSDSRTIYYADSVKGRFTISRDNAKNSLYLQMNSLRAEDTAVYYCARDYGRTYEAYWGQGTLVTVSS VL: DIVMTQSPDSLAVSLGERATINCRASKSVSTSGYSYIHWYQQKPGQPPKLLIYLASNLESGVPDRFSGSGSGTDFTLTISSLQAEDVAVYYCQHSRELPLTFGQGTKLEIK |  |  |  | 1400 | 1940 | 2690 | 1290 | 2560
4 | AB11-3 (antibody, V domains shown, also called Humanized AB 11-3) VH: EVQLVESGGGLVQPGGSLRLSCAASGFTFSSFGMHWVRQAPGKGLEWVAYISSDSRTIYYADSVKGRFTISRDNAKNSLYLQMNSLRAEDTAVYYCARDYGRTYEAYWGQGTLVTVSS VL: DIVLTQSPDSLAVSLGERATINCRASKSVSTSGYSYIHWYQQKPGQPPKLLIYLASNLESGVPDRFSGSGSGTDFTLTISSVQAEDVAVYYCQHSRELPLTFGQGTKLELK |  |  |  | 1320 | 1540 | 2200 | 1010 | 2360
5 | AB1 (antibody, V domains shown, Labelled with Alexa Fluor 647 NHS ester for FACS) VH: QVQLQQSAAELARPGASVKMSCKASGYTFTTYTMHWVKQRPGQGLEWIGFINPSSGYTDYNQKFKDRTTLTADKSSSTVYMQLSSLTSEDSAVYYCANGDYYVAYWGQGTLVTVSA VL: QIVLTQSPAIMSASLGERVTMTCTASSSVSSTYFHWYQQKPGSSPKLWIYSTSNLASGVPRRFSGSASGTSYSLTISSMEAEDAATYYCHQYHRSPLTFGAGTKLELK | 105 nM | 84 nM | 109 nM |  |  |  |  | 
6 | AB17 (antibody, V domains shown, Labelled with Alexa Fluor 647 NHS ester for FACS) VH: QVQLQQSGAELAKPGASVKMSCKASGYTFTGYWMHWVKQRPGQGLEWLGYINPSTGYTESNQKFKDKATLTADKSSTTAYMQLRSLTPEDSAVYYCAREGITTVLVDYWGQGTTLTVSS VL: QIVLTQSPAIMSASLGERVTMTCTASSSVSSSYLHWYQQKPGSSPKLWIYSTSNLASGVPARFSGSGSGTSYSLTISSMEAEDAATYYCHQYHRSPPTFGAGTKLELK |  |  | 2650 nM |  |  |  |  | 
7 | AB19 (antibody, V domains shown, Labelled with Alexa Fluor 647 NHS ester for FACS) VH: EVQLQQSGPELVKPGGSMKISCKASGYSFTGYTMNWVKRSHGKNLEWIGLINPYNGVTTYNQNFKGKATLAVDKSSSTAYMELLGLTSEDSAVYYCTRDPLYYGYRDSTMDYWGQGTSVTVSS VL: NIMMTQSPSSLAVSAGEKVTMSCKSSQSVLFSSNQKNYLAWYQQKPGQSPRLLIYWASTRESGVPDRFTGSGSGTDFTLTISNVQAEDLAVYYCHQYLSSRTFGAGTKLELK |  |  | ≥ 5000 nM |  |  |  |  | 
8 | AB16 (antibody, V domains shown, Labelled with Alexa Fluor 647 NHS ester for FACS) VH: EVRLVESGGGLMQPGGSLKLPCAASGFPFSSSAMSWVRQTPEKRLEWVASINSDGNTYYPDSVKGRFTISRDSARNILYLQMSSLRSEDTAMYYCTRNGDYRYDEFAYWGQGTLVTVSA VL: not shown |  |  | ≥ 5000 nM |  |  |  |  | 
